# Results as given in the DeepSol protein solubility set.
# Test: soluble on expression in E. coli; label from the status in PepcDB or PDB records
row,Sequence,soluble on expression in E. coli
1,MSLNSVPNDLQTWKRFVKDGVLDEARLRKRIAESWHRCKKAEVNPYLEKGPKVLQQTELDQQSKKHSFFLTTAKPYLEKLLPAIKEMEMMALLIDSDGVVLALDGHPRALYEAKRINFVEGACWTETAVGTNAIGTALHISEPVAIQGSEHYSIASHLWNCSAAPIHHEDGSLAGVIDISCPAAGAHPHMLGIATAIAYAAERELAAKSREKELELISRFGERAASSVPMVLCNTKQHIISASMPIRTSMPDWQGRHLYELKERGYSIENAVTIGDGGTCFYLSEQKKKKAFRFNGVIGQSGRSQAMLMHLERAAATDASVCLSGETGTGKEVAARALHENSERRHGPFVAVNCGAIPSDLIESELFGYAEGAFTGAKRNGYKGAFQKANQGTLFLDEIGEISHSMQVALLRVLQERKITPIGGTKEIPVDIRVIAATHCDLRELAENGKIREDLFYRLHVYPIELPPLRDRTEDIPDLFEYYKQKNHWPGDLPSDFCNVLKQWKWPGNIRELFNVFERLSIRFPDGRLRDESLPALLEAAGLPASSAEKKPAAAGVLTFREQIQKDMMIKALESAKGNVSQAAKISGIPRSTFYKRLKKFNLSAESEGGSHHHHHH,soluble
2,MTALITQFWQQVETALKTANPQEKCRLVNDLYDNLLPQIQLIKLEDFPEIVPQDNIAAFPEKPLLVAPKDVPKRSFATEEGYAATLHAIAHIEFNAINLGLDAAWRFGRNAQEELGEGLAFVKDWLRVAREESTHFSLVNEHLKTLGYQYGDFEAHAGLWEMAQATAHDIWERMALVPRVLEARGLDATPVLQEKIAQRKDFAAVNILDIILRDEIGHVYIGNHWYHALSKKRGLDAMKCFTELLHKYRIVIFKGVINTDARIQAGFTQHELDWIYEVEQTLKSYIKKLEHHHHHH,soluble
3,GMENEENSAREQEADDFLHIASVKEDWGGDGRGRMNLSGRRTAIAKEYLPRQYQFFDTNTVMEKQGWRVRGMPDNIAPGSRRLLTWHDSGASTSRVVLPPKFEAPSGIFTADLEIFVIKGAIQLGEWQLNKHSYSFIPAGVRIGSWKVLGGEEAEILWMENGSVPLEYKYAQEDHPDARLSDFIPALDSKLLPWGKADTVQFVQANKKWLRKDINGGGVWLLAILPHFDNKYQMIQPYNEEGYCLTGYCDVGDYRIVKDHYWYCPSFSTLPRHITDDGGLFFVRVDRDLSKVATVLSYAPQDT,soluble
4,MIEPVLENVQPNSAASKAGLQAGDRIVKVDGQPLTQWVTFVMLVRDNPGKSLALEIERQGSPLSLTLIPESKPGNGKAIGFVGIEPKGKASPV,soluble
5,MGSDKIHHHHHHMSDVLSQEEINQLIEALMKGELKEEDLLKEEEEKKVKPYDFKRPSKFSKEQLRTFQMIHENFGRALSTYLSGRLRTFVDVEISIDQLTYEEFIRSVMIPSFIVIFTGDVFEGSAIFEMRLDLFYTMLDIIMGGPGENPPNRPPTEIETSIMRKEVTNMLTLLAQAWSDFQYFIPSIENVETNPQFVQIVPPNEIVLLVTASVSWGEFTSFINVCWPFSLLEPLLEKLSDRFWMMGRKPEKVEERMEELRKASQKIPVTVQAVIGETELRLKEILDLEVGDVIRLGTHYKDEIRIDVEGRPKFRGIPGVFKGKYAVKVTGEFTNGGEYE,not soluble
6,MGSDKIHHHHHHMTQRQERLFVLEASSGGRLFSVNPDGSDKKVIVTGCRIPDGVAIDVLAGHVYWTNMGLPPENDGSIERVDLDGGNRTTIVPSGVTHTPKQLYLEAVGRKLYWGDREGMRVMRCDLDGSHVETLVQTGQGEDDRRDETRWCVGVAVDPAGGHLYWTQKGPSDAGLGKILRAGISLPAGESAAERGDIEVLFEGLPEPIDLELDLAERMLYWTDRGDPPRGNSVNRSPMHPPDAQRTPEILLTHLMEAIGIALDPDGGRMYVTDLAGNVYAAGLDGSNRREILVAQGNLTGIAHAVLPTGTSF,not soluble
7,MGSDKIHHHHHHMRVFNSSPPSEAQTRTRILQAAQRLFASQGFDGTTTRDLAQAAGVAEGTLFRHFPNKKAILVEVATSGWVEILTDLLTELSEMGSYKAVAQVMRRRMWNFQKNADLMRVCFMEVQFHPDLRDRIQLEVITKMTDVGEAFFQTAMDKGIYRKMDAKLVAKVFLGMFAIAGFSNNTLIEPDASPQQMQEMAEGLADIFLNGVLAKD,not soluble
8,MCLAVPGKVIEVNGPVAVVDFGGVKREVRLDLMPDTKPGDWVIVHTGFAIEKLDEKKAMEILEAWAEVEKAMEGF,soluble
9,MQIMGLLEDKALVEAALFVAGRPLSVKELSKALGIKSLDYLEKLIELIASEYAERKSAIEVTKVAGDKWVMQVKQEYSQRVIHLMPKPELTAGELKTLALIAFLQPVEQSKIVKLRGSQAYEHIKRLLEMGLIYAEPYERTKLLGTTEKFAELYGFPENDPNLIREKFREVIHAEYEDLVKKLEETEANRNNPTT,soluble
10,MLFHRKIKVPDCVFKAEKRVLHVSDTPVSFYRTFDEILNLIKPDIIIHTGDLADDIKLERKPWLKKEYENALIKFKNIIRGRIVYLVPGNEDDKEIIREILGRDVILVNPGTIIEIYGRTFALGHKPEDVKGKEAEFKLYGHDPKSLFPFNGIHAIHIILFPEWKVVKIRYPSWVNYDRGYRIFRGLLEHHHHHH,not soluble
11,MGSDKIHHHHHHMQKYTSQKLDRLNWDDLRYFLEVARTQRASAAGKRLGVDHTTVARRVRELEAALGVILFDKSRADGFTLTSDGHRLLRHADAVETAVQSASEQFRGATQGLSGHVRIGSTEGFGCFFLSPQIARFTAAHRDVSIDILPVPHFVSLSKREADMAITLERPERGKYVFTRLCDYRLRLYGTRDYFLRHEPVRCIADLRHHAFIDYVADLAFSHELLYLNRTIPDVSSSLCSTSVIAQYFAALQGNALAILPCFMAAPNPMLVSILPDEVVVTRQFWLSSREDLRKLRRITVLWDYLRAATDANRPLLLGDSAELKYVQP,not soluble
12,MGSDKIHHHHHHMRPVDKGKDLGSFKPYNKACAPLQDRLGEYCSYCERWIAAAIEVEHILPKKANPSQKYRWSNFLLACKNCNTGKGSDQIIVTDYLWPDLDNTFLAFCYDDEGRAYPNPRLPPAILEKAKATWTLTNLNWHPDTTFTGMVAPSEKDHRHSHRKQAWIYASDKRNQLLQYDTPDRRVSVAKDALQRGMFSVWMTVFNTTSELDREIRRLLIENFVGTATNCFDRLGNAHRSSTGQI,not soluble
13,MDDSQESSFSVSKYETNDDGSMGQFISINECEREIQMLERDIRQQKESSANAKTAITFDQLRKIHTLSTLLGPHKELFFDRICRAADIQRASLKNRLKSNINKFEPSTPLSFQPGFDSQSSLSTTSESQNFVVTPTTLSSLLNNHTRKNHIEMLAPLASEEELMRFPAERQFDLMQIGFSYDEVKQLLEMFEKFKNDVQEINRLHTLTQILNQFCNYISMYAPPNLKMISSAFNLLELGNSAHEVKRVLLKARRREESEESDVSFSKKPRPSSRSPASPNRDDLLLGLDRSPPSDDGTQKV,not soluble
14,MGSDKIHHHHHHMKLYKLLILDIDGTLRDEVYGIPESAKHAIRLCQKNHCSVVICTGRSMGTIQDDVLSLGVDGYIAGGGNYIQYHGELLYNQSFNQRLIKEVVCLLKKREVAFSIESQEKVFMNQKAKEIFETMNQLKGTNSCINKQHIQEKITYENNIEEYKSQDIHKICLWSNEKVFDEVKDILQDKMELAQRDISSQYYEIIQKDFHKGKAIKRLQERLGVTQKETICFGDGQNDIVMFQASDVTIAMKNSHQQLKDIATSICEDIFDNGIYKELKRRNII,not soluble
15,MGSDKIHHHHHHMGKKTTIAIAHSDADLGKPAEYTRDQLDLVKAMIRQIADQTMGGMGNIVHKGDKVLIKINTVIPVPANAGFTTDPRMLEALIELVQEQNPGRIQIGERCAMGADTMEAMRVCGIVDVAERTGVELCPFEHAEFDMYKIDRPISFNEFPVPRPVRDADCYIGLPKMKVHVHTTFTGAMKLQFGNLPNYDWMVRCHRDDIYQKIVNLTRAANPKWFVMDSLYACQGNGPFSPYSEDLIKDFNTICGGPDPVAVDTVCEALMDWDYPGTNVPSTVLGAAEGLGTNRMNEIELAGAPLDKVKRRFKRQNTILQGQYPNVNLVMGSTCEAGCKAIVRIQLDQLQADGTLERLEKPITIFTGLQFEEHINKVEGDVLIVGDCAKGMLEKFPDARYWGDCEEYPNCTPIWANRPDVGIANYVRQLTAVREGNAR,not soluble
16,MQSRKRLDAELVRRKIARSREQAVEMIKDGRVHVQGFVAKKPATQVTPEASIRVEDAGLDDWASRGAHKLLGALAEFKSKGLNVSGRRALDAGASTGGFTDVLLRESASEVVAVDVGYGQLIWRLQNDARVKVLDRTNIRNLSLEITDGPCDLMVGDLSFISLKLTLPAIAACMSDGADLLPMVKPQFEVGKERLGHGGVVRDPKLRAEVTEDIALFAQQLGLSFVDVVASPLPGPSGNVEYFLWLKKDSGRSAKGLHEIHEKVAEAVQKGPQ,not soluble
17,MSQEFVGRWKLIHSENFEEYMKEVGVGLITRKAAANLKPTLEIKVEGDLWYSNQYSTFKNTTLSFKLGQEFDETTPDGRTVKSVVNFENGKFIHIQKKIKDSDKESIITRWLEGDKLITTLESGSVVSRREYVRE,not soluble
18,EQQADGTWLMDGWISIRKASNLLEHDLVDEAERYSTLGGYLLWQFGYIPAAGEQITVDGLIFEIVSVNKHNIGKVRVHRTQPENE,not soluble
19,MAHHHHHHMGTLEAQTQGPGSMSDIPSDLHYTAEHEWIRRSGDDTVRVGITDYAQSALGDVVFVQLPVIGTAVTAGETFGEVESTKSVSDLYAPISGKVSEVNSDLDGTPQLVNSDPYGAGWLLDIQVDSSDVAALESALTTLLDAEAYRGTLTE,soluble
20,MGSDKIHHHHHHMSDQANQGDLEIRPSPLLKVINDLHSKYKSLKEGIVANYIPELAKVNPDLFSISIVTVDGQVYQVGDYQQLFTIQSISKVFAYGLALEDHGRDYVLTRVGVEPTGEAFNAIILDEQSKRPYNPMVNAGAIATTSLIKGAGATERLNRVLEMFRRYIGHDVFVDISVFTSERSTGHRNRAMAHLMLNFGMIDRNIEEALDLYFQQCAVMVNCHDLAVMAATLANRGVNPITGEQAVNSRYIKDILSVMYTCGMYNFAGEWAYKVGIPAKSGVCGGIMAVVPNLMGIAVFSPPLDIRGNSVRGVKVCEELSQQLGLHLFECMKVGNGEWGVGNCEC,not soluble
21,MDHGRRRLHSGSTPRGGERPAKRERISVEEQQSQEIRNLKRKLEEARQREDKYIKNEQLHHTAMRSKQQRIERMEKSMESTNRKMYATQCRLNDMENIYDDLEMESKIMADFIDHYYDSRNITEEDRDELQDKLDEEAANYRDLEDRIKEVRHRDRYMKTVETERKRTTFYRKKMLELAEQLQFEQQEVTGETPLWKLCEICAHQFSHSDEYVPRVLVCGHTLCTSCIEKLDVGDGIRCPFCRTWTNMKRIEALPKNFQILQM,not soluble
22,KLVIAIVQDKDANYLSDQFIDQNVRATKLSTTGGFLQSGNTTFMIGIEEERVPEVLEIIKKASHTREEFMTPSVNMDVNMEGTTAYPIKVQVGGATVLVLPVDQFERF,not soluble
23,EFILVQADTPSSPSIDQVEPYSSTAQVQFDEPEATGGVPILKYKAEWRAVGEEVWHSKWYDAKEASMEGIVTIVGLKPETTYAVRLAALNGKGLGEISAASEFKTQPVREPSAPKLEGQMGEDGNSIKVNLIKQDDGGSPIRHYLVRYRALSSEWKPEIRLPSGSDHVMLKSLDWNAEYEVYVVAENQQGKSKAAHFVFRTSAQPTAIPANGSPTSGL,soluble
